Changes are numbered by the printed parent chain. Names may count otherwise. Ends that are not written are not given here.

This note sets out measurements from patent US20100204445A1.

To fix the notation:
B1: recombinant fused protein in which a dockerin polypeptide with the 48th amino acid alanine (A) substituted with serine (S) was fused at the N-terminal of … (protein, not shown: large carriers; small tags and cut ends)
chain: MGLKGDVNNDGAIDALDIAALKKAILTQSTSNINLTNADMNNDGNIDSIDFAQLKVKLLN
modifications: not fully specified (C-terminus)
B2: recombinant JNK3 of which a wild-type dockerin was fused at the N-terminal (protein, not shown: large carriers; small tags and cut ends)
chain: B1 chain with S48A
modifications: not fully specified (C-terminus)
B3: recombinant JNK3 of which an I49S-substituted dockerin polypeptide is fused at the N-terminal (protein, not shown: large carriers; small tags and cut ends)
chain: B1 chain with S48A, I49S
B4: recombinant JNK3 of which an I49V-substituted dockerin polypeptide is fused at the N-terminal (protein, not shown: large carriers; small tags and cut ends)
chain: B1 chain with S48A, I49V
B5: recombinant JNK3 of which an I49T-substituted dockerin polypeptide is fused at the N-terminal (protein, not shown: large carriers; small tags and cut ends)
chain: B1 chain with S48A, I49T
B6: recombinant JNK3 of which an I49G-substituted dockerin polypeptide is fused at the N-terminal (protein, not shown: large carriers; small tags and cut ends)
chain: B1 chain with S48A, I49G
B7: recombinant JNK3 of which an I49N-substituted dockerin polypeptide was fused at the N-terminal (protein, not shown: large carriers; small tags and cut ends)
chain: B1 chain with S48A, I49N
B8: recombinant JNK3 of which an L16T/I49T-substituted dockerin polypeptide is fused at the N-terminal (protein, not shown: large carriers; small tags and cut ends)
chain: B1 chain with L16T, S48A, I49T
B9: recombinant JNK3 of which a wild-type dockerin was fused at the C-terminal (protein, not shown: large carriers; small tags and cut ends)
chain: B1 chain with S48A
B10: recombinant JNK3 of which an L16T/I49T-substituted dockerin polypeptide was fused at the C-terminal (protein, not shown: large carriers; small tags and cut ends)
chain: B1 chain with L16T, S48A, I49T
B11: recombinant JNK3 with an I49T-substituted dockerin polypeptide fused at the C-terminal (protein, not shown: large carriers; small tags and cut ends)
chain: B1 chain with S48A, I49T

For the first assay, the target named is recombinant cohesin (CipA of Clostridium josui, BAA32429) (Clostridium josui). Put plainly: SPR as in Example 7, under the action of a chelating agent.
Take B1: the Kd was 5.2 nM.

A further assay has the same target. Put plainly: SPR (Biacore T-100), same format, 5 mM EGTA in running buffer.
On to B2, for which the dissociation constant Kd worked out at 3.9 nM, the off-rate constant (koff) is 0.0079 s⁻¹ and the kon is 2e+06 M⁻¹ s⁻¹.
On the same counts, the results for B3 are 67 nM, 0.048 s⁻¹ and 710000 M⁻¹ s⁻¹.
The matching figures for B4: 8.1 nM, 0.011 s⁻¹ and 1.4e+06 M⁻¹ s⁻¹.
The matching figures for B5: 19 nM, 0.023 s⁻¹ and 1.2e+06 M⁻¹ s⁻¹.
For the molecule B6, the Kd was determined as 170 nM, the koff turned out to be 0.05 s⁻¹ and the kon was 300000 M⁻¹ s⁻¹.
On the same counts, the results for B7 are 56 nM, 0.089 s⁻¹ and 1.6e+06 M⁻¹ s⁻¹.
The matching figures for B8: 12 nM, 0.029 s⁻¹ and 250000 M⁻¹ s⁻¹.

The next assay has the same target. Put plainly: batch elution of N-terminal fusion from cohesin carrier with 5 mM EGTA at 4 C, SDS-PAGE densitometry, 360 min set to 100.
Turning to B2, the rate of eluted recombinant protein (%) at 5 min was determined as 11.5%, the rate of eluted recombinant protein (%) at 30 min amounted to 28.8%, the rate of eluted recombinant protein (%) at 60 min turned out to be 39.6% and the rate of eluted recombinant protein (%) at 360 min turned out to be 100%.
As to B3, the rate of eluted recombinant protein (%) at 5 min came out at 74.7%, the rate of eluted recombinant protein (%) at 30 min worked out at 100%, the rate of eluted recombinant protein (%) at 60 min was 100% and the rate of eluted recombinant protein (%) at 360 min is 100%.
Regarding B4, the rate of eluted recombinant protein (%) at 5 min is 25.3%, the rate of eluted recombinant protein (%) at 30 min is 53.3%, the rate of eluted recombinant protein (%) at 60 min is 68.2% and the rate of eluted recombinant protein (%) at 360 min is 100%.
The matching figures for B5: 66.5%, 100%, 100% and 100%.
With B6, the rate of eluted recombinant protein (%) at 5 min came out at 100%, the rate of eluted recombinant protein (%) at 30 min was determined as 100%, the rate of eluted recombinant protein (%) at 60 min was found to be 100% and the rate of eluted recombinant protein (%) at 360 min worked out at 100%.
Turning to B7, the rate of eluted recombinant protein (%) at 5 min was determined as 65.9%, the rate of eluted recombinant protein (%) at 30 min turned out to be 94.1%, the rate of eluted recombinant protein (%) at 60 min turned out to be 100% and the rate of eluted recombinant protein (%) at 360 min turned out to be 100%.
In the case of B8, the rate of eluted recombinant protein (%) at 5 min was 55.2%, the rate of eluted recombinant protein (%) at 30 min is 100%, the rate of eluted recombinant protein (%) at 60 min is 100% and the rate of eluted recombinant protein (%) at 360 min is 100%.

A further assay has the same target. Description: batch elution of C-terminal fusion from cohesin carrier with 5 mM EGTA at 4 C, SDS-PAGE densitometry, 360 min set to 100.
As for B9, the rate of eluted recombinant protein (%) at 5 min was 1.5%, the rate of eluted recombinant protein (%) at 30 min was 10.5%, the rate of eluted recombinant protein (%) at 60 min came out at 20.9% and the rate of eluted recombinant protein (%) at 360 min turned out to be 100%.
The matching figures for B10: 55.7%, 100%, 100% and 100%.
On the same counts, the results for B11 are 83.1%, 100%, 100% and 100%.

Another assay shares this target. Description: SPR (Biacore T-100), fusion captured via anti-JNK3 antibody on Protein A chip, cohesin as analyte, +Ca2+ (1 mM CaCl2), no EGTA.
Take B2: the dissociation constant (Kd) stood at 6.5 nM, the koff amounted to 0.0053 s⁻¹ and the kon turned out to be 810000 M⁻¹ s⁻¹.
On the same counts, the results for B3 are 4.5 nM, 0.0045 s⁻¹ and 1e+06 M⁻¹ s⁻¹.
In the case of B4, the Kd was found to be 7.6 nM, the koff was determined as 0.0033 s⁻¹ and the kon stood at 430000 M⁻¹ s⁻¹.
The matching figures for B5: 3.8 nM, 0.006 s⁻¹ and 1.6e+06 M⁻¹ s⁻¹.
On the same counts, the results for B6 are 2.2 nM, 0.0066 s⁻¹ and 3e+06 M⁻¹ s⁻¹.
On the same counts, the results for B7 are 3.7 nM, 0.005 s⁻¹ and 1.3e+06 M⁻¹ s⁻¹.
As to B8, the equilibrium dissociation constant (Kd) worked out at 3.2 nM, the dissociation rate constant (koff) is 0.015 s⁻¹ and the on-rate (kon) stood at 4.9e+06 M⁻¹ s⁻¹.

One may read the Kd as a measure of binding affinity in units of concentration. In general, koff refers to the rate constant with which the complex falls apart. The kon is the rate constant with which the complex forms.
